Measured values from patent publication US20220378956A1.
pKd: −log10 of the molar value.

Tests used:
soluble uPAR (suPAR) [1] = molecular target: soluble uPAR (suPAR) (UniProt Q03405); experiment: SPR (Biacore 2000), antibody captured on protein A/G surface, suPAR injected, 25 C, 1:1 Langmuir fit
soluble uPAR (suPAR) [2] = molecular target: soluble uPAR (suPAR) (UniProt Q03405); experiment: SPR (Biacore 2000), antibody captured on rabbit anti-mouse surface, suPAR injected, 25 C, 1:1 Langmuir fit

Row | pKd (soluble uPAR (suPAR) [1]) | pKd (soluble uPAR (suPAR) [2]) | Substance
1 | 9.41 | – | Human Engineered ATN-658 variant HE ATN-4, renamed humanized mAb MNPR-101 (antibody)
2 | – | 9.42 | mouse monoclonal antibody ATN-658
